Laboratory results: patent US20140161821A1, “TREATMENT WITH ANTI-PCSK9 ANTIBODIES” (PFIZER INC., priority 2011, published 2014)
Read-outs that look alike come from different tables or passages of the source.

What was measured:
[1] = Example 3 clinical study, single IV dose on stable atorvastatin: L1L3 pharmacokinetics; conditions: geometric mean
Experimental: Infusion rates were carefully controlled by an infusion device per protocol. Atorvastatin (40 mg daily) was administered as described below in the study protocol. Subjects self-administered atorvastatin during their participation in this study except from Days 1 through 7 during their confinement to the clinic where the same dose was administered by qualified site personnel.
The subjects returned to the clinical research unit for subsequent visits.
(§1) In the study, the incidence of subjects meeting toxicity or intolerable dose criteria was measured. Incidence of treatment emergent adverse events (TEAEs) categorized by severity and causal relationship to study drug was also be measured. The timeframe for measurement of each of the above outcomes was two months.
Dose Administration: subjects took sponsor-provided atorvastatin (40 mg). […] Subjects fasted at least 10 hours prior to the lipid panel blood sample on Days 5 and 6.

[2] = Experimental: Subjects were seen periodically in the clinic for safety assessments and collection of blood for safety labs, lipid profiles, PK, PD, and immunogenicity samples. Telephone contacts were made prior to each visit to remind them of the 10-hour fasting requirements, during screening and on Day 3 to assess adverse events and document the contact in the subject's source document. […] Infusions were administered as a single infusion over approximately 60 minutes.
[3] = biological target: T1, PCSK9 (Mus musculus, UniProt Q80W65); assay: Serum cholesterol in C57BL/6 mice after single IP dose; type: in vivo; conditions: 10 mg/kg single IP
T1 construct: endogenous in cells; host or cells: live C57BL/6 mice (in vivo, serum PCSK9)
Experimental: Serum cholesterol levels recovered to 69 mg/dL by day 7 post-treatment.

[4] = biological target: T2, PCSK9 (Homo sapiens, UniProt Q8NBP7); assay: Example 6 clinical study, IV doses every 4 weeks on stable statin: lipids; type: in vivo; conditions: for LDL-C lowering, % below baseline: by Day 29 (FIG. 15)
T2 construct: PCSK9 antagonist antibody that antagonizes circulating PCSK9; endogenous in cells; host or cells: human subjects in clinical trials (in vivo, circulating PCSK9)
Experimental: This study was a randomized, multi center, double blind, placebo control, parallel designed trial with a 3 week screening period, 12 week treatment period and 8 week follow up period.
Subjects enrolled in the study met all of the following criteria: men and women subjects greater than equal to age of 18; body mass index of 18.5 to 40 kg/m^2; total body weight greater than 50 kg (110 lbs) and less than 150 kg (330 lbs); on a stable daily dose of a statin, defined as atorvastatin 40 or 80 mg, rosuvastatin 20 or 40 mg or simvastatin 40 or 80 mg for a minimum of 45 days prior to Day 1; lipids meet the following criteria at two qualifying visits (screening and Day −7): fasting LDL-C greater than or equal to 100 mg/dL, ;
The pre-specified primary efficacy endpoint was the percentage change from baseline of LDL-C at Day 85 analyzed using an ANCOVA model. The final ANCOVA model contained terms for baseline LDL-C and treatment. To preserve the overall type I error rate at a level of 0.05 for the primary endpoint analysis, a Haybittle-Peto, boundary with 0.001 alpha spent was employed.
The LDL-C data were subsequently analyzed using mixed model repeated measures to estimate both the treatment by time and empirical dose-response profiles.

[5] = biological target: T2, PCSK9; assay: Example 5 clinical study, four weekly IV doses: fasting LDL-C; type: in vivo, human Japanese subjects; conditions: weekly IV 0.25, 0.5, 1.0, 1.5 mg/kg on Days 1, 8, 15, 22; baseline about 155 mg/dL
Excerpt: This study was a randomized, multi-center, double-blind, placebo control, parallel designed trial with a 28 day screening period, 4 week treatment period and 8 week follow-up period (FIG. 11). […] For each subject, the study consisted of 3 periods: screening, treatment, and follow-up. […] The follow-up period will lasted approximately 8 weeks, from approximately Day 29 to the last visit (Day 78).

[6] = Example 3 clinical study: safety and adverse events; type: in vivo, human
Experimental: as §1

[7] = IV every 4 weeks, stable daily statin
[8] = single IV 0.5 or 4 mg/kg + atorvastatin 40 mg daily

T2 sequence (Q8NBP7 153-692): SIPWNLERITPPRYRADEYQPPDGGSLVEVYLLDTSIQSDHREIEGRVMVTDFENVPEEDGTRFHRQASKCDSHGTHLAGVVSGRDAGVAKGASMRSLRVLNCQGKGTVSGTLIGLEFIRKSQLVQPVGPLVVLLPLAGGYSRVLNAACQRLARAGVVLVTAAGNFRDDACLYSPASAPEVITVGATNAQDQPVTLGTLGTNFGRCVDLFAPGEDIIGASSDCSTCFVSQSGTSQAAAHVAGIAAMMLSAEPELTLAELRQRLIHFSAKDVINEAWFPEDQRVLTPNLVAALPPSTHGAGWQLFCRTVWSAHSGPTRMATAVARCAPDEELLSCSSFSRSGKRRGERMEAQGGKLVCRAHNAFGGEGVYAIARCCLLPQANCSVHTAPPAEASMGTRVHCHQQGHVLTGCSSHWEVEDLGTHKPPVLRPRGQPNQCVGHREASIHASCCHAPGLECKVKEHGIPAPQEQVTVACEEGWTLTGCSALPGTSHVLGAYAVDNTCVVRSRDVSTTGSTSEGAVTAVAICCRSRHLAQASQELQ
T2 sequence (Q8NBP7 31-152 partner limits assumed): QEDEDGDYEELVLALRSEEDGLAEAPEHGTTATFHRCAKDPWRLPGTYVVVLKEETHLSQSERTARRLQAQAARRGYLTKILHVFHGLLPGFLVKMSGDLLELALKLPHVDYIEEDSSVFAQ
T1 sequence (Q80W65 156-694): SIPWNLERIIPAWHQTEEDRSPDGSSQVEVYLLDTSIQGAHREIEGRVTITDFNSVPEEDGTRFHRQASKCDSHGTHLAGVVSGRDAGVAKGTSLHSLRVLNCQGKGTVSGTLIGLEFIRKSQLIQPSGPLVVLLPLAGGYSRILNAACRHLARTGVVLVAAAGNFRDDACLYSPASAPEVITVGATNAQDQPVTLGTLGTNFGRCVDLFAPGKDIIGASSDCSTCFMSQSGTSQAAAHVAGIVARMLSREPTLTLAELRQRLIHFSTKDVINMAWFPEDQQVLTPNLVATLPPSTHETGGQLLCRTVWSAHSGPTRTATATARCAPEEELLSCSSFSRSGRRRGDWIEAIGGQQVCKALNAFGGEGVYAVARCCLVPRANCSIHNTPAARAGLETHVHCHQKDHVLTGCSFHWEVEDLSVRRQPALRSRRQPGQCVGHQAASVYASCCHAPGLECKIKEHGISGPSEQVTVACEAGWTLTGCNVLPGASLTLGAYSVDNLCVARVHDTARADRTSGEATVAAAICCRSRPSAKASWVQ
T1 sequence (Q80W65 35-155 partner limits assumed): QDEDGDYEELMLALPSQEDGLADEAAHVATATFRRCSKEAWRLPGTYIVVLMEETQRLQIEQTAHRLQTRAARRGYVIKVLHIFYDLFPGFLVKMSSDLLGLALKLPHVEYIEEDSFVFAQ

B1: L1L3: humanized (<5% murine residues) monoclonal PCSK9 antagonist antibody that binds to secreted PCSK9; VH SEQ ID NO: 11, VL SEQ ID NO: 12 (antibody, V domains shown)
VH: QVQLVQSGAEVKKPGASVKVSCKASGYTFTSYYMHWVRQAPGQGLEWMGEISPFGGRTNYNEKFKSRVTMTRDTSTSTVYMELSSLRSEDTAVYYCARERPLYASDLWGQGTTVTVSS
VL: DIQMTQSPSSLSASVGDRVTITCRASQGISSALAWYQQKPGKAPKLLIYSASYRYTGVPSRFSGSGSGTDFTFTISSLQPEDIATYYCQQRYSLWRTFGQGTKLEIK
modifications: heavy chain variable region; light chain variable region
For B1, the AUCinf ([1]; 0.5 mg/kg L1L3 + atorvastatin) was 46338 ng·days/mL, the AUCt ([1]; 0.5 mg/kg L1L3 + atorvastatin) was 38310 ng·days/mL and the CL ([1]; 0.5 mg/kg L1L3 + atorvastatin) was 10.8 mL/day/kg. For the same molecule, the Cmax ([1]; 0.5 mg/kg L1L3 + atorvastatin) was 13827 ng/mL, the Vss ([1]; 0.5 mg/kg L1L3 + atorvastatin) was 0.0402 L/kg and the AUCinf ([1]; 4 mg/kg L1L3 + atorvastatin) was 777167 ng·days/mL. It also gave an AUCt ([1]; 4 mg/kg L1L3 + atorvastatin) of 726337 ng·days/mL, a CL ([1]; 4 mg/kg L1L3 + atorvastatin) of 5.2 mL/day/kg and a Cmax ([1]; 4 mg/kg L1L3 + atorvastatin) of 105048 ng/mL. It also gave a Vss ([1]; 4 mg/kg L1L3 + atorvastatin) of 0.0523 L/kg, a Cmax ([2]; 0.25 mg/kg, after 1st dose) of 10900 ± 13000 ng/mL and a Ctrough ([2]; 0.25 mg/kg, after 1st dose) of 109 ± 406 ng/mL. The Ctrough ([2]; 3 mg/kg, after 3rd dose) was 3040 ± 4420 ng/mL, the Ctrough ([2]; 6 mg/kg, after 3rd dose) was 15600 ± 15300 ng/mL and the “Serum cholesterol reduction vs saline treated controls” value ([3]; 48 hours post treatment) was 37%. For the same molecule, the Serum cholesterol levels ([3]; 4 days post-treatment) was 44 mg/dL, the “Serum cholesterol reduction vs control animals” value ([3]; 4 days post-treatment) was 47% and the “Serum cholesterol levels (recovered)” value ([3]; day 7 post-treatment) was 69 mg/dL. The Serum cholesterol levels ([3]; normal diet, 48 hours post treatment) was 47 mg/dL, the LDL-C lowering ([4]; 3 mg/kg and 6 mg/kg dosing regimens, persisted for 28 days (FIG. 16)) was “greater than 30%” and the “LDL-C lowering, % below baseline” value ([4]; 3 mg/kg dosing regimen, stable daily statin) was “about 50%”. For the same molecule, the “LDL-C lowering, % below baseline” value ([4]; 6 mg/kg dosing regimen, stable daily statin) was “about 65%”, the Effect on triglycerides [4, 7] was “No effect” and the “Elevation of HDL” value [4, 7] was “up to 9%”. The “Difference in LS means (Test-Reference) of percentage changes from baseline for LDL-C” value ([4]; L1L3 0.25 mg/kg vs. Placebo on Day 85, MMRM) was 2.67, the “Difference in LS means (Test-Reference) of percentage changes from baseline for LDL-C” value ([4]; L1L3 1 mg/kg vs. Placebo on Day 85, MMRM) was 0.83 and the “Difference in LS means (Test-Reference) of percentage changes from baseline for LDL-C” value ([4]; L1L3 3 mg/kg vs. Placebo on Day 85, MMRM) was −38.92. For the same molecule, the “Difference in LS means (Test-Reference) of percentage changes from baseline for LDL-C” value ([4]; L1L3 6 mg/kg vs. Placebo on Day 85, MMRM) was −50.14, the “Fasting LDL-C” value [5] was “sustained, substantial and durable dose-dependent fasting LDL-C lowering” and the Discontinued subjects [6, 8] was “no discontinued subjects”. For the same molecule, the “Intensity of TEAEs” value [6, 8] was “none were severe in intensity”, the “Serious adverse events (SAE)” value [6, 8] was “one serious adverse event (SAE), i.e. worsening of migraine headache, which was not drug-related” and the “Alanine aminotransferase (ALT) and/or aspartate aminotransferase (AST) elevation (TEAEs)” value ([6]; transient, without clinical signs/symptoms, all resolved within one week) was “greater than 3 ×ULN”.
